Experimental findings from the supplement of paper PMC10567573 are described below.

The labels stand for the following.
B1: TMEM106C (parent)
chain: TVPEILVHNIVIFMRTSVKISYIG
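Further: lentivirally expressed fusions sorted by FACS into six bins by GFP to DsRed ratio, PSI derived from sequencing read proportions per bin multiplied by bin number.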

The variants in this series derive from B1. The experiment in a line: protein stability index of a GFP-peptide fusion (GPS, HEK-293T) (PSI 1-6); higher = more stable. The note with it: c terminus: a fixed tail appended.
On to TVPEILVHNIVIFMRYSVKISYIG [T16Y], for which the protein stability index worked out at 3.88. For TVPEILVHNIVIFMRSSVKISYIG [T16S] the value was 2.54; for TVPEILVHNIVIFMRDSVKISYIG [T16D], 2.97. As for TVPEILVHNIVIFMRLSVKISYIG [T16L], the figure is 3.11; as for TVPEILVHNIVIFMRWSVKISYIG [T16W], 2.85. For the variant TVPEILVHNIVIFMRRSVKISYIG [T16R], the protein stability index was determined as 2.5. As to TVPEILVHNIVIFMRFSVKISYIG [T16F], the protein stability index was 3.06.

As to TVPEILVHNIVIFMRQSVKISYIG [T16Q], the protein stability index turned out to be 2.46. For TVPEILVHNIVIFMRISVKISYIG [T16I], the protein stability index is 1.93. With TVPEILVHNIVIFMRESVKISYIG [T16E], the protein stability index is 2.54. For TVPEILVHNIVIFMRNSVKISYIG [T16N], the protein stability index is 2.98.

For the variant TVPEILVHNIVIFMRTSVDISYIG [K19D], the protein stability index turned out to be 3.61. For TVPEILVHNIVIFMRTSVLISYIG [K19L] the value was 3.2; for TVPEILVHNIVIFMRTSVNISYIG [K19N], 3.38; for TVPEILVHNIVIFMRTSVYISYIG [K19Y], 3.12. For TVPEILVHNIVIFMRTSVQISYIG [K19Q] the value was 3.02. In the case of TVPEILVHNIVIFMRTSVPISYIG [K19P], the protein stability index was determined as 2.88.

TVPEILVHNIVIFMRTSVGISYIG [K19G]: the protein stability index turned out to be 2.77.

For TVPEILVHNIVIFMRTSVEISYIG [K19E], the protein stability index turned out to be 4.38. For TVPEILVHNIVIFMRTSVHISYIG [K19H] the value was 2.62; for TVPEILVHNIVIFMRTSVSISYIG [K19S], 3.4; for TVPEILVHNIVIFMRTSVAISYIG [K19A], 3.17. For TVPEILVHNIVIFMRTSVCISYIG [K19C] the value was 4.43; for TVPEILVHNIVIFMRTSVFISYIG [K19F], 3.24; for TVPEILVHNIVIFMRTSVMISYIG [K19M], 1.77. Regarding TVPEILVHNIVIFMRTSVIISYIG [K19I], the protein stability index came out at 3.18. Turning to TVPEILVHNIVIFMRTSNKISYIG [V18N], the protein stability index was determined as 3.44.

As to TVPEILVHNIVIFMRTSGKISYIG [V18G], the protein stability index is 2.88. Consider TVPEILVHNIVIFMRTSKKISYIG [V18K], for which the protein stability index stood at 2.77. For TVPEILVHNIVIFMRTSMKISYIG [V18M] the value was 3.05; for TVPEILVHNIVIFMRTSHKISYIG [V18H], 2.13; for TVPEILVHNIVIFMRTSAKISYIG [V18A], 4.48. As to TVPEILVHNIVIFMRTSPKISYIG [V18P], the protein stability index worked out at 2.92. As for TVPEILVHNIVIFMRTSTKISYIG [V18T], the figure is 3.66; as for TVPEILVHNIVIFMRTSYKISYIG [V18Y], 4.01. With TVPEILVHNIVIFMRTSFKISYIG [V18F], the protein stability index was determined as 2.33. For TVPEILVHNIVIFMRTSSKISYIG [V18S] the value was 3.02; for TVPEILVHNIVIFMRTSEKISYIG [V18E], 2.77; for TVPEILVHNIVIFMRTSQKISYIG [V18Q], 3.31.

In the case of TVPEILVHNIVIFMRTSWKISYIG [V18W], the protein stability index stood at 2.45. As for TVPEILVHNIVIFMRTSLKISYIG [V18L], the figure is 4.24; as for TVPEILVHNIVIFMRTSDKISYIG [V18D], 2.15; as for TVPEILVHNIVIFMRTSVKISYIS [G24S], 3.61. In the case of TVPEILVHNIVIFMRTSVKISYIH [G24H], the protein stability index was determined as 2.84. With TVPEILVHNIVIFMRTSVKISYIL [G24L], the protein stability index is 2.82. For TVPEILVHNIVIFMRTSVKISYIY [G24Y] the value was 2.61; for TVPEILVHNIVIFMRTSVKISYIE [G24E], 3.36; for TVPEILVHNIVIFMRTSVKISYIV [G24V], 2.95. As for TVPEILVHNIVIFMRTSVKISYIK [G24K], the figure is 2.98.

With TVPEILVHNIVIFMRTSVKISYIN [G24N], the protein stability index is 3.8. For TVPEILVHNIVIFMRTSVKISYIT [G24T] the value was 2.06; for TVPEILVHNIVIFMRTSVKISYII [G24I], 3.38. Consider TVPEILVHNIVIFMRTSVKISYIA [G24A], for which the protein stability index amounted to 2.22. Take TVPEILVHNIVIFMRTSVKISYID [G24D]: the protein stability index was 2.27. As to TVPEILVHNIVIFMRTSVKISYIF [G24F], the protein stability index was determined as 3.89. For TVPEILVHNIVIFMRTSVKISYIM [G24M] the value was 3.57. As for TVPEILVHNIVIFMRTSVKISYIC [G24C], the figure is 2.8.

As to TVPEILVHNIVIFMRTSVKISYIW [G24W], the protein stability index came to 2.75. As for TVPEILVHNIVIFMRTSVKISYIR [G24R], the figure is 3.06; as for TVPEILVHNIVIFMRTSVKTSYIG [I20T], 3.24; as for TVPEILVHNIVIFMRTSVKFSYIG [I20F], 3.1. For TVPEILVHNIVIFMRTSVKHSYIG [I20H] the value was 4.04; for TVPEILVHNIVIFMRTSVKGSYIG [I20G], 3.25. As for TVPEILVHNIVIFMRTSVKPSYIG [I20P], the figure is 3.39; as for TVPEILVHNIVIFMRTSVKCSYIG [I20C], 3.79; as for TVPEILVHNIVIFMRTSVKASYIG [I20A], 2.52. As for TVPEILVHNIVIFMRTSVKDSYIG [I20D], the protein stability index stood at 3.71.

Turning to TVPEILVHNIVIFMRTSVKWSYIG [I20W], the protein stability index stood at 2.88. For TVPEILVHNIVIFMRTSVKYSYIG [I20Y], the protein stability index was determined as 3.86. As for TVPEILVHNIVIFMRTSVKSSYIG [I20S], the figure is 3.33; as for TVPEILVHNIVIFMRTSVKNSYIG [I20N], 1; as for TVPEILVHNIVIFMRTSVKLSYIG [I20L], 3.56.

As to TVPEILVHNIVIFMRTSVKRSYIG [I20R], the protein stability index worked out at 2.13. For TVPEILVHNIVIFMRTSVKVSYIG [I20V] the value was 1.4. For the variant TVPEILVHNIVIFMRTSVKQSYIG [I20Q], the protein stability index came out at 4.14. Regarding TVPEILVHNIVIFMRTSVKKSYIG [I20K], the protein stability index turned out to be 3.3.

On to TVPEILVHNIVIFMRTSVKESYIG [I20E], for which the protein stability index came out at 3.72.

Turning to TVPEILVHNIVIFMRTSVKISYDG [I23D], the protein stability index worked out at 3.85.

For the variant TVPEILVHNIVIFMRTSVKISYTG [I23T], the protein stability index came out at 3.01. For TVPEILVHNIVIFMRTSVKISYQG [I23Q] the value was 4.15; for TVPEILVHNIVIFMRTSVKISYGG [I23G], 2.88; for TVPEILVHNIVIFMRTSVKISYFG [I23F], 3.86.

Consider TVPEILVHNIVIFMRTSVKISYYG [I23Y], for which the protein stability index is 3.25. As to TVPEILVHNIVIFMRTSVKISYWG [I23W], the protein stability index was determined as 3.22.

Take TVPEILVHNIVIFMRTSVKISYVG [I23V]: the protein stability index stood at 2.4. As for TVPEILVHNIVIFMRTSVKISYAG [I23A], the figure is 3.15; as for TVPEILVHNIVIFMRTSVKISYHG [I23H], 1.77; as for TVPEILVHNIVIFMRTSVKISYRG [I23R], 2.81. As for TVPEILVHNIVIFMRTSVKISYNG [I23N], the protein stability index is 3.26. Consider TVPEILVHNIVIFMRTSVKISYSG [I23S], for which the protein stability index was 3.05. For TVPEILVHNIVIFMRTSVKISYPG [I23P] the value was 3.49; for TVPEILVHNIVIFMRTSVKISYMG [I23M], 3.06; for TVPEILVHNIVIFMRTSVKISYCG [I23C], 2.41. As to TVPEILVHNIVIFMRTSVKISYKG [I23K], the protein stability index worked out at 4.25.
